Results as given in the nanobody polyreactivity screen of Harvey et al. (2022).

Assay: yeast display, Sf9 membrane polyspecificity reagent, FACS + sequencing; frameworks hold sequencing errors
Outline: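 Galactose induction of a Saccharomyces cerevisiae BJ5465 synthetic nanobody display library ran 36–48 hours. The cells were then stained for 1 hour at 4 °C with 10% biotinylated, detergent-solubilized Sf9 membrane reagent, pulled down on streptavidin microbeads and FACS-sorted into low and high (top ~1%) gates on expression and reagent-binding fluorescence. Labels for polyreactivity follow the gate of origin.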

Sequence: QVQLVESGGGLVQAGGSLRLSCAASGYIFLRNAMGWYRQAPGKERELVAAIRRTGGSTYYADSVKGRFTISRDNAKNTVYLQMNSLKPEDTAVYYCAKRSYTGYEYWGQGTQVTVSS
- polyreactivity (PSR sort gate): low polyreactivity

Sequence: QVQLVESWRGLVQAGGSLRLSCAASGNTFRWYAMGWYRQEPGKEREFVADITVRGGSTYYADSLKGRFTISRDNAKNTVYLQMNSLKPEQTAVYYCAVDFRRYPGFDYWGQGTQVTVSS
- polyreactivity (PSR sort gate): low polyreactivity

Sequence: QVQLVESGGGLVQAGGSLRLSCAASGRIFVLYDMGWYRQAPGKERELVAGISGSGGRTYYADSVKGRFTISRDNAKNTVYLQMNSLKPEDTAVYYCNARGYYWYRPYVNSNGGYWGQGTQVTVSS
- polyreactivity (PSR sort gate): high polyreactivity

Sequence: QVQLVESGGGLVQAGGSLRLSCAASGFIYHTNAMGWYRPAPGKERELVAAISDSADITHYADSVKGRFTISRDYAKNTVYLQMNSLKPEDTAVYYCNTTGDPPAYDFAFEDWGQGTQVTVSS
- polyreactivity (PSR sort gate): low polyreactivity

Sequence: QVQLVESGGGLVQAGGSLRLSCAASGRISVFNAMGWYRQAPGKDRELVAAITNGGSTNYADSVKVRFTISRDNAKNTVYLLMNSLKPEDTAVYDCAASVGTYAYGRTVYRYDYWGQGTQVTVSS
- polyreactivity (PSR sort gate): low polyreactivity

Sequence: QVQLVESGGGLVQAGGSLRLSCAASGRIFGPYTMGWYRPAPGKEREFVAAISRSGDSTYYADSVKGRFTISRDNAKNTVYLHMNSLKPADTAVYYCAAKYGTRLTAYYYWGQGTQVTVSS
- polyreactivity (PSR sort gate): high polyreactivity

Sequence: QVQLVESGGGLVQAGGSLRLSCAASGSIFRVYAMGWYRRAPGKERELVATITWNGGSTYYADSVKGRFTISRDNAKNTVYLQMNSLKPEDTAVYYCAKPTSWRRVLPMDYWGQGTQVTVSS
- polyreactivity (PSR sort gate): low polyreactivity

Sequence: QDQLVESGGGLVQAGGSLRLSCAASGSTFIDNVMGWYRQPPGQERELVAAINSGGSTDYADSLKGRFTISRDNAKNTVYLLMNRLKPEDTAVYYCNAYHIVIYDYWGQGTQVTVSS
- polyreactivity (PSR sort gate): low polyreactivity

Sequence: QVQLVESGGGLVQAGGSLRLSCAASGRIFTYYAMGWYRQAPGKERELVASISKSSGSTYYADSVKGRFTISRDNAKNTVYLQMNSLKPEDTAVYYCATDPYVRRSPSWYDYWGQGTQVTVSS
- polyreactivity (PSR sort gate): low polyreactivity

Sequence: QVQLVESGGGLVQAGGSLRLSCAASGRTFYYYVMGWYRQAPGKEREFVAAITSGGSTNYADSVKGRFTISRDNAKNTVYLQMNSLKPEDTAVYYCAAGKYTIYGYWTPYDYWGQGTQVTVSS
- polyreactivity (PSR sort gate): low polyreactivity

Sequence: QVHLVESGGGLVQAGGSLRLSCPASGRTFYRKAMGWDRQAPGKERELVAAITSGGGTTYADSVKGRFTISRDNAKNTVYLQMNSLKPEDTAVYYCAAGRVRRRVLYNYWGQGTQVTVSS
- polyreactivity (PSR sort gate): high polyreactivity

Sequence: QVQLVESGGGLVQAGGSLRLSCAASGRTFYSYVMGWSRQAPGKERELVAAISQSGGNTYYADSVKGRFTISRDNAKNTVYLQMNSLKPEDTAVYYCAAGGVLTSWFGQEYEYYYWGQGTQVTVSS
- polyreactivity (PSR sort gate): high polyreactivity

Sequence: QVQLVESGGGLVQAGGSLRLSCAASGYSFYINVMGWYIQAPGKERELLAAISISGDSTYYSDSVKGRFTISRDNAKNTVYLQMNSLKPDDTALYYCAADTVSSWYYPLEDEYWGQGTQVTVSS
- polyreactivity (PSR sort gate): high polyreactivity

Sequence: QVQLVESGGGLVQAGGSLRLSCAASGIIFKYYAMGWYRQAPGKERELVAAITWSDTRTYYADSVKGRFTISRDNAMNTVYLQMNSLKPEDTAVYYCAVDEPSLYSWGGGYYWGQGTQVTVSS
- polyreactivity (PSR sort gate): high polyreactivity

Sequence: QVQLVESGGGLVQAGGSLRLSCAASGIIFSFYTMGWYRQAPGKERELGAAITWSGGSTYYADSVKGRFTISRDNAKNTVYLQMNSLKPEDTAVYYCARSQAVYDGWFAKFGYWGQGTQVTVSS
- polyreactivity (PSR sort gate): low polyreactivity

Sequence: QVQLVESGGGLVQAGGSLRLSCAASGRTISKNTMGWYRQAPGKERELVAAISSSGGSTNYADSVKGRFTISRDNAKNTVYLQMNSLKPEETAVYYCAADPWRFRSRPVNYWGQGTQVSVSS
- polyreactivity (PSR sort gate): high polyreactivity

Sequence: QVQLVESGGGLVQAGGRLRLSCADSGRTFPLYVMGWYRQAPGKERELVAAISARGGSTYYADSVKGRFTISRDNAKNTVYLQMNSLKPEDTAVYYCATLVTNGRYDSWGQGTQVTVSS
- polyreactivity (PSR sort gate): high polyreactivity

Sequence: QVQLVESGGGLVQAGGSLRLSCAASGRIFAYYAMGWYRQAPGKERELVAGINSGGGSTYYADSVKGRFTISRDNAKNTVYLQMNSLKPEDNAVSYCATYYYRRSNRSSTSYDYWGQGTQVTVSS
- polyreactivity (PSR sort gate): high polyreactivity

Sequence: QVQRVESGGVLVQAGGSLRLSCAASGGIFYYYTMGWYRQAPGKERELVAAINWSGGSTYYADSVKGRFTISRDNAKNTVYLQMNSLKPEDTAVYYCNAVYRHPVTYGYWGQGTQVTVSS
- polyreactivity (PSR sort gate): high polyreactivity

Sequence: QVQLVESGGGLVQAGGSLRLSCAASGLIFRGYTMGWYRQAPGKEREFVAAITRRGTSTYYADSVKGRFTISRDNAKNTVYLQMNSLKPEDTAVYYCAARSVSGPRGYPYDYWGQGTQVTVSS
- polyreactivity (PSR sort gate): high polyreactivity

Sequence: QVQLVESGGGLVQAGGSLRLRCAASGGTFYYYAMGWYRQAPGKERELVAAISTSGTSTYYADSVKGRFTISRDNAKNTVYLQMNSLKPEDTAVYDCAARGLRVSSRGYYWGQGTQVTVSS
- polyreactivity (PSR sort gate): high polyreactivity

Sequence: QVQLVESGGGLVQAGGSLRLSCAASGITFEPYAMGWYRQAPGKEREFVADITWSGGSTYYADSVKGRFTISRDNAMNTGYLQMNSLKPEDTAVYYCAADGWTSYWSDYWGQGTQVTVSS
- polyreactivity (PSR sort gate): low polyreactivity

Sequence: QVQLVESGGGLVQAGGSLRLSCAASGRIFERYAMGWYRQAPGKERELVAGISISGGGTYYADSVKGRFTISRDNAKNTVYLQMNSLKPEDTAVYYCAATFPREEYGYWGQGTQVTVSS
- polyreactivity (PSR sort gate): low polyreactivity

Sequence: QVQLVESGGGLVQARGSLRLSCAASGITFRVNAMGWYRPAPGKERELVAAISRGGGSTYYADSVKGRFTISRDNAKNTVYLQMNSLKPEDTAVYFCAASYGAPYGYKRYYYWGQGTQVTVSS
- polyreactivity (PSR sort gate): high polyreactivity

Sequence: QLQLVESGGGLVQAGGSLRLSCAASGSTFDYNAKGWYRQAPGKERELVAAITSTGGNTYYADSVKGRFTIARDNAKNSVYIQMNSLKQEDTAVYYCNKDVARYPYGKCDYWGQGTQVTVSS
- polyreactivity (PSR sort gate): low polyreactivity

Sequence: QVQLVESGGGLVQAGGSLRLSCAASGSIFYAYAMGWYRQAPGKERELVAVISRGGITNYADSVKGRFTISRDNAKNTVYLQMNSMKPEDTAVYYCAAATSAWGYLRRYGYWGQGTQVTVSS
- polyreactivity (PSR sort gate): low polyreactivity

Sequence: QVQLVESGGGLVQAGGSLRLSCAASGSTFIYNAMGWYRLAPGKEREFVAGITGSGGSTYYADSVKGRFTISRDNAKNTVYLQMNSLKPEDTAVNYCNADSPVVNYADLDYWGQGTQVSVSS
- polyreactivity (PSR sort gate): low polyreactivity

Sequence: QVQLVESGGGLVQAGGSLRLICAASGSIFINNGMGWYRQAPGKERELVAAINGGDGSTYYADSVKGRFTISRDNAKNTVYLQMNSLKPEDTAVYYCAADQVTYSVEYDYWGQGTQVTVSS
- polyreactivity (PSR sort gate): low polyreactivity

Sequence: QVQLVESGGGIVQAGGSLRLSCAASGSIFSENTMGWYRQAPGKKRELVADITSGGSTNYADSVKGRFTISRDNAKNTVYLQMNSLKPEDTAVYYCNADWEAYKYNYWGQGTQVTVSS
- polyreactivity (PSR sort gate): low polyreactivity

Sequence: QVQLVESGGGLVQAGGSLRLSCAASGSIFTNAMGWYRQAPGKETELVAAISYSGGSTYYADSVKGRFTISRDNAKNTVYLQMNSLKREDTAVYYCAAEAWFDGIWGDYWGQGTQVTVSS
- polyreactivity (PSR sort gate): high polyreactivity

Sequence: QVQLVESGGGLVQAGGSLRLSCAASGSIISAYAMGWYRQAPGKVREFVASITWSGGSTYYADSVKGRFTISRDNAKNTVYLQMNSLKPEDTAVYDCAAVYVTWYNNYEYWGQGTQVTVSS
- polyreactivity (PSR sort gate): high polyreactivity

Sequence: QVQLVESGGGLVQAGGSLRVSCAASGRTFLSYTMGWYRPAPGKERQLVARISASGGSTYYADSVKGRFTISRDNAKITVYLQMNSLKPEDTAVYYCARVPYYLYYVTRPYDYWGQGTLVTVSS
- polyreactivity (PSR sort gate): low polyreactivity

Sequence: QVQLVESGGGLVQAGGSLRLSCAASGSIFGVYTMGWYRQAPGKERELVAAITSAGSTYAYSVKGRFTISRDNAKNTVYLQMNSLKPEDTAVYYCNAQSVLLSLRVELREPHEYWGQGTQVTVSS
- polyreactivity (PSR sort gate): low polyreactivity

Sequence: QVQLVESGGGLVQAGGSLRLSFAASGLNFRVYAMGWYTQAPGTERELVAAISRGGSTYYADSVKGRFTISRDNAKNTVYLQMNSLKPEDTAVYYCAAVFVHRGYYYWGQGTQVTVSS
- polyreactivity (PSR sort gate): high polyreactivity

Sequence: QVQLVESGGGLVQAGGSLRLSCAASGSILYPTAMGWYTQAPGKEREFVAGITSSGSTYYADSVKGRFTISRDNAKNTVDDQMNSLKPDDTAVYYCATSVYRTYGNSVHRMNYWGQGTQVTVSS
- polyreactivity (PSR sort gate): high polyreactivity

Sequence: QVQLVESGGGLVQAGGSLRLSCAASGGIFPYYAMGWYRQAPGKERELVADISSGGSTYYADSVKGRFTISRDNAKNTVYLQMNSLKPEDTAVYYCAADAGQYFTYSGDDNHDYWGQGTQVTVSS
- polyreactivity (PSR sort gate): low polyreactivity

Sequence: QVQLVESGGGLVQAGGSLRLSCAASGSTFKTYAMGWYRQAPGKEREFVASISGSGGSTRYADSVKGRFTISRDNAKNTVYLQMNSLKPEDTAVYYCAARLQKPTNGKGVYYWGQGTQVTVSS
- polyreactivity (PSR sort gate): high polyreactivity

Sequence: PVQLVESGGGLVQAGGSLRLSCAACGYTFQVYAMGWYRQAPGKERELVASIRWRGGRTYYADSVKGRFTISRDNAKNTVYLKLNSLKPADTSVYYCAARQFVIYPTYYTYYYWGQGTQVTVSS
- polyreactivity (PSR sort gate): high polyreactivity

Sequence: QVQLVESGGGLVQAGGSLRLSCAASGSIFYRNTMGWYRQAPGKERELVASINTGTGTYYADSVKGRFTISRDNAKNTVYLQMNSLKPEDTAVYYCNAKGWVWPFPSYYPYDSWGQGTQVTVSS
- polyreactivity (PSR sort gate): high polyreactivity

Sequence: QVQLVETGGGLVQAGGSLRLSCAASGRTFRYNAMGWYRQAPGKERELVAAITGSGGSTYYADSVKGRFTISRDNAKNTVYLQMNSLKPEDTAVYYCARAYSYRLYPYGSWGQGTQVTVSS
- polyreactivity (PSR sort gate): high polyreactivity

Sequence: QVQLVESGGGLVQAGGSLRLSCAASGSIYYGKTMGWYRHAAGKEWELDAAISSGGSTKYADSVKGRFTISRDNAKNTVYLQMNSLKPEDTAVYYSAADLPRYWVTWMDYWGQGTQLTVSS
- polyreactivity (PSR sort gate): low polyreactivity

Sequence: QVQLVESGGGLVQAGGSLRLSCAASGNTFTWYTMGWYRQAPGKERELVAVITSDGSTYYADSVKGRFTISRDNAKNTVYLQMNSLKPEDTAGYYCNALSADWYPEEDFWGQGTQVTVSS
- polyreactivity (PSR sort gate): low polyreactivity

Sequence: QVQLVESGGGLVQAGGSLSLSCAASGFIFGGYAMGWYRQAPGKERELVAAITWSGGNTYYADSVKGRFTISRDNAKNTVYLQMNSLKPEATAVYYCAADYWTKYVYWGQGTQVTVSS
- polyreactivity (PSR sort gate): low polyreactivity
